From US20090110686A1
Numbering of substitutions follows the chain as printed.

B1: anti-CCR5 antibody with heavy chain variable domain SEQ ID NO: 6 and light chain variable domain SEQ ID NO: 9, mutated IgG1 (IgG1v2) constant region (antibody, name in EU numbering, V domains shown)
VH: QVQLQESGPGLVKPSQSLSITCTVSGFPLGAFGVHWVRQSPGKGPEWLGVIWKGGNTDYNAAFKSRLRITKDNSKSQVFFRMNSLQTDDTATYYCAKVNLADAMDYWGQGTTVTVSS
VL: DIQMTQSPASLSASVGETVTITCRASGNAHGYLAWYQQKPGKAPKLLIYNTKTLAEGVPSRFSGSGSGTQFSLKINSAQPEDFGNYYCQHHYDLPRTFGGGTKVEIKR
B2: anti-CCR5 antibody with heavy chain variable domain SEQ ID NO: 6 and light chain variable domain SEQ ID NO: 10, mutated IgG1 (IgG1v2) constant region (antibody, name in EU numbering, V domains shown)
VH: B1 VH
VL: B1 VL with I48V
B3: anti-CCR5 antibody with heavy chain variable domain SEQ ID NO: 7 and light chain variable domain SEQ ID NO: 9, mutated IgG1 (IgG1v2) constant region (antibody, name in EU numbering, V domains shown)
VH: B1 VH with P45L
VL: B1 VL
B4: anti-CCR5 antibody with heavy chain variable domain SEQ ID NO: 7 and light chain variable domain SEQ ID NO: 10, mutated IgG1 (IgG1v2) constant region (antibody, name in EU numbering, V domains shown)
VH: B1 VH with P45L
VL: B1 VL with I48V
B5: anti-CCR5 antibody with heavy chain variable domain SEQ ID NO: 8 and light chain variable domain SEQ ID NO: 9, mutated IgG1 (IgG1v2) constant region (antibody, name in EU numbering, V domains shown)
VH: B1 VH with P45L, T92I
VL: B1 VL
B6: anti-CCR5 antibody with heavy chain variable domain SEQ ID NO: 8 and light chain variable domain SEQ ID NO: 10, mutated IgG1 (IgG1v2) constant region (antibody, name in EU numbering, V domains shown)
VH: B1 VH with P45L, T92I
VL: B1 VL with I48V

Each binder was assayed against human CC chemokine receptor CCR5 (human) (UniProt P51681) (assay: cell-based or functional assay).

First: B1
Second: B2
The IC50, cell-cell fusion assay (gp160-expressing HeLa cells with CEM.NKR-CCR5-Luc cells, luciferase) of the first is 3.7-fold lower: 0.108 µg/mL for the first, 0.399 µg/mL for the second.

Compared with B3, B4 is 3.3-fold higher in IC50, cell-cell fusion assay (gp160-expressing HeLa cells with CEM.NKR-CCR5-Luc cells, luciferase): 0.046 µg/mL for the first, 0.152 µg/mL for the second.

Going from B5 to B6, the IC50, cell-cell fusion assay (gp160-expressing HeLa cells with CEM.NKR-CCR5-Luc cells, luciferase) falls from 0.132 µg/mL to 0.076 µg/mL (1.7-fold).
